Measured values: the nanobody polyreactivity screen of Harvey et al. (2022)

Test: yeast display, Sf9 membrane polyspecificity reagent, FACS + sequencing; frameworks hold sequencing errors
In short: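 Nanobodies came from a synthetic yeast display library in Saccharomyces cerevisiae BJ5465, induced with galactose for 36–48 hours and stained for 1 hour at 4 °C with 10% biotinylated, detergent-solubilized Sf9 membrane reagent. Cells were enriched on streptavidin microbeads and then FACS-sorted, with low and high (top ~1%) gates set on anti-HA fluorescence for expression and streptavidin fluorescence for reagent binding. Each polyreactivity label reflects the gate a clone came from. Genes were amplified by colony PCR, sequenced by MiSeq 2 × 250 and filtered by CDR length.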

Row | Sequence | polyreactivity (PSR sort gate)
1 | QVQLVESGGGLVQAGGSLRLSCAASGFTFAANTMGWYRQAPGKERELVADISGRGDRTSYADSVKGRFTISRDNAKNTVYLQMNSLKPEDTSVYYCAVDIYYYSNVHYYYWGQGTQVTVSS | low polyreactivity
2 | QVQLVESGGGLVQAGGSLRLSCAASGFTFADYAMGWYRQAPGKERELVAAINRSGGRTYYADSVKGRFTISRDNAKNTVYLQMNSLKPEDTAVYYCAAYGITYHNYDYWGQGTQVTVSS | high polyreactivity
3 | QVQLVESGGGLVQAGGSLRLSCAASGFTFAGNARGWDRQSPGKERELVAAITSGGSTYYADSVKGRFTMSRDKAKNTVYLQMNSLKPEDTAVYYCAALVFRGRSFTHDYWGQGTQVTVSS | high polyreactivity
4 | QVQLVESGGGLVQAGGSLRLSCAASGFTFAGYAMGWNRQAPGKERELVAASNRGGSTYYADSVKGRFTSSRDNAKHTVYLQRNSLKPEDTAVYYCAKAQRFYGGRMGYWGQGTQVTVSS | low polyreactivity
5 | QVQLVESGGGLVQAGGSLRLSCAASGFTFAGYAMGWYRQAPGKERELVAAISWRGGSTYYADSVKGRFTISRDNAKNTVYLQMNSLKPEDTAVYYCAAASRKRTSREPLDYWGQGTQVTVSS | high polyreactivity
6 | QVQLVESGGGLVQAGGSLRLSCAASGFTFAGYAMGWYRQAPGKERELVAGIRSSGARTNYADSVKGRFTISRDNAKNTVYLQMNSLKPEDTAVYYCNAVRTLYIWWPGYYYWGQGTQVTVSS | low polyreactivity
7 | QVQLVESGGGLVQAGGSLRLSCAASGFTFAGYAMGWYRQAPGKERELVAGIRSSGARTYYADTVKGRFTISRDNAKNTVYFQLKSLKPDDTAVYYCAKTDGFYGGYGYWGQGTQVTVSS | low polyreactivity
8 | QVQLVESGGGLVQAGGSLRLSCAASGFTFAHNAMGWYRQAPGKERELLAAISSRGGRTFYADSVKGRFTISRDNAKNTVYLQMNSLKPEDTAVYYCNRVRSVTPSPRYYYWGQGTQVTVSS | high polyreactivity
9 | QVQLVESGGGLVQAGGSLRLSCAASGFTFALNAMGWYRQAPGKERELVAAISFSGTRTYYADSVKGRFTISRDNAKNTVYLQMNSLKPEDTAVYYCAARVWVSDSYYPYYYWGQGTQVTVSS | high polyreactivity
10 | QVQLVESGGGLVQAGGSLRLSCAASGFTFALYTMGSYRQAPGKERELVAAIRSTGSTYADSVKGRFTISRDNAKNTVYLQMNSLKPEDTAVYYCAAQYWRRKKYYYWGQGTQVTVSS | high polyreactivity
11 | QVQLVESGGGLVQAGGSLRLSCAASGFTFARNAMGWYRQAPGKERELVAAINRSGGSTYYADSVKGRFTISRDNAKNTVYLQMNRLKPEDTAVYYCNKPRLAQQGYDYWGQGNQVTVSS | high polyreactivity
12 | QVQLVESGGGLVQAGGSLRLSCAASGFTFARNAMGWYRQAPGKERELVAVISRGGSTNYADSVKGRFTISRDNAKNTVSLQLHSLKPEDTAVYYCATRSSRRSYYLGEFNYWGQGTQVTVSS | high polyreactivity
13 | QVQLVESGGGLVQAGGSLRLSCAASGFTFARYAMGWYRQAPGKERELVAAITYSGGRTYYADSVKGRFTISRDNAKNTVYLQMNSLKPEDTAVYYCAARLSKRSGYYYWGQGTQVTVSS | high polyreactivity
14 | QVQLVESGGGLVQAGGSLRLSCAASGFTFARYAMGWYRQAPGKERELVASISGSGGSTYYADSVKGRFTISRDNAKNTVYLQMNSLKPEDTAVYYCAADTWYGFDWGQGTQVTVSS | high polyreactivity
15 | QVQLVESGGGLVQAGGSLRLSCAASGFTFARYTMGWYRQAPGKERELVAAISSRGSSTYYADSVKGRFTISRDNAKNTVFLQMNSLKPEDTAVYYCAASPYDTQTLDYDYWGQGTQVTVSS | high polyreactivity
16 | QVQLVESGGGLVQAGGSLRLSCAASGFTFATYTIGWYRPAPGKERELVAAISWSGGSTYYADSVKGRFTISRDNAKNTVYLQMNSLKPEDTAFYYCAAQRPSALRLYSSQRTIFGYWGQGTQVTVSS | high polyreactivity
17 | QVQLVESGGGLVQAGGSLRLSCAASGFTFAVSAMGWYRQAPGKERELVAAISRSGTRTYYADSVKGRFTISRDNAKNTVYLQMNSLKPEDTAVYYCAADKYRHGYDYWGQGTQVTVSS | low polyreactivity
18 | QVQLVESGGGLVQAGGSLRLSCAASGFTFAVYAMGWDSQAPGKERELVAAISRSGTRTYYADSVKGRFTSSRDNAKNTVSLQMNSLKPEDTAVYYCAADKYRHGYDYWGQGTQVTVSS | low polyreactivity
19 | QVQLVESGGGLVQAGGSLRLSCAASGFTFAVYAMGWYRQAPGKERELVAAISRSGTRTYYADSVKGRFTISRDNAKNTVYLQMNSLKPEDTAVYYCAADKYRHGYDYWGQGTQVTVSS | low polyreactivity
20 | QVQLVESGGGLVQAGGSLRLSCAASGFTFAVYVMGWYRPGRGKERELVAAISRSGGSTYYADSVKGRFTISRDNANNTDYLQMNSLNPEDTAVYYCAASPKRVLRESGDYCGQGTQVTVSS | high polyreactivity
21 | QVQLVESGGGLVQAGGSLRLSCAASGFTFAWNAKGWYRQAPGKERELVAAINRSGGSTKYADSVKGRFTISRDNAKNTVYLQMNSLKPEDTAVYFCNKYQLVRTYGSYSYYYWVQGTQVTVSS | high polyreactivity
22 | QVQLVESGGGLVQAGGSLRLSCAASGFTFAYNAMGWYRQAPGKERELVAAITVSGGRTYYADSVKGRFTISRDNAKNTVYLQMNSLKPEDTAVYYCAATVRVRTNSWMDYWGQGTQVTVSS | low polyreactivity
23 | QVQLVESGGGLVQAGGSLRLSCAASGFTFAYNAMGWYRQAPGKETELVAAINSGGGRTYYADSVKGRFTISRDNAKNTVYLQMNSLKPEATAVYYCNAYPYKLDYDYWGQGTQVTVSS | high polyreactivity
24 | QVQLVESGGGLVQAGGSLRLSCAASGFTFAYYAMGWYRQAPGKEREFVAAINKGGGSTNYADSVKGRFTISRDNAKNTVYLQMNSLKPEDTAVYYCNADYFVWYIGRVFSRYGYWGQGTQVTVSS | low polyreactivity
25 | QVQLVESGGGLVQAGGSLRLSCAASGFTFAYYAMGWYRQAPGKERELVAAISERGGSTYYADSVKGRFTISRDNAKNTVDLQMNSLKPEDTAVYYCARTFWDSPWYQSSYYSWGQGTQVTVSS | low polyreactivity
26 | QVQLVESGGGLVQAGGSLRLSCAASGFTFAYYAMGWYRQAPGKERELVAAITSRGGSTYYADSVKGRFTISRDNAKNTVYLQMNSLKPEDTAVYYCATKRVLTGYDSWGQGTQVTVSS | high polyreactivity
27 | QVQLVESGGGLVQAGGSLRLSCAASGFTFAYYTMGWYRQAPGKERELVAAINWSGGSTYYADSVKGRFTISRDYAKNTVYLQMNSLKPEDTAVYYCAAKSYWWATYDYWGQGTQVTVSS | high polyreactivity
28 | QVQLVESGGGLVQAGGSLRLSCAASGFTFAYYTMGWYRQAPGKERELVATISTSGGSTYYADSVKGRFTISRDNAKNTVYLQMNSLKPEDTAVYYCNRDLGRYYHWYDYWGQGTQVTVSS | low polyreactivity
29 | QVQLVESGGGLVQAGGSLRLSCAASGFTFAYYVMGWYRQAPGKERELVAAITRSGDITSYADSVKGRFTISRDNAKNTVYLQMNSLKPEDTAVYYCNARLGYQSRRYNYWGQGTQVTVSS | high polyreactivity
30 | QVQLVESGGGLVQAGGSLRLSCAASGFTFDDYAMGWYRQAPGKERELVAAIDDDSSTNYADSVKGRFTISRDNAKNTVYLQMNSLKPEDTAVYYCNARARVSGKWYNYWGQGTQVTVSS | high polyreactivity
